Patent US20230126400A1 (Alector, published 2023)

T1: human MS4A4A ECL1 peptide (amino acid residues 86-98) (human)
T1 construct: synthetic peptide
T1 peptide: CMASNTYGSNPIS

T2: BSA-conjugated human MS4A4A ECL2 peptide (amino acid residues 159-179) (human, conjugated to BSA (site not stated))
T2 construct: also called MS4A4A-ECL2 BSA conjugated peptide; BSA-MS4A4A-ELC2 peptide
T2 peptide: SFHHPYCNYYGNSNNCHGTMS

T3: human MS4A6A ECL1 peptide (amino acid residues 68-85) (human)
T3 peptide: SASFSPNFTQVTSTLLNS

T4: human MS4A6A ECL2 peptide (amino acid residues 138-185) (human)
T4 peptide: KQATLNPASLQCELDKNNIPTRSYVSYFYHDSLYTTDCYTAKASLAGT

T5: human MS4A4A ECL2 peptide (amino acid residues 159-179), free (human)
T5 construct: synthetic peptide; also called huMS4A4A-ELC2 free-peptide
T5 peptide: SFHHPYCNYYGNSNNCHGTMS

B1: anti-MS4A4A antibody 4A-19 (antibody, V domains shown)
VH: QVQLQQSGAELARPGASVKLSCKASGYSFIDYGISWVKQRTGQGLEWIGEIYPRSGNTYYNEKFKGKATLTADKSSSTAYMELRSLTSEDSAVYFCARKGLLRDFDYWGQGTTLTVSS
VL: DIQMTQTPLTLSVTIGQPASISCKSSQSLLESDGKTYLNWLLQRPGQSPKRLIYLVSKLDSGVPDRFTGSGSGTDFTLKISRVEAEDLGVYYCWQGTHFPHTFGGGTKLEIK
notes: murine hybridoma antibody
B2: anti-MS4A4A antibody 4A-11 (antibody, V domains shown)
VH: EVKLEESGGGLVQPGGSMKLSCAASGFTFSDAWMDWVRQSPEKGLEWVAEIRSKTDNHATYFAESVKGRFTISRDDSKSSVYLQMNSLRAGDTGIYYCYGSTFASWGQGTLVTVSS
VL: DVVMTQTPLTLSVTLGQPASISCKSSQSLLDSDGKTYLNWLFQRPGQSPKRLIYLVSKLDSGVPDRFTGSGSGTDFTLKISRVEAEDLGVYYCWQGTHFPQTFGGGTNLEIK
notes: murine hybridoma antibody
B3: anti-MS4A4A antibody 4A-8 (antibody, V domains shown)
VH: EVKLVESGGGLVQPGGSLKLSCATSGFTFSDYYMYWVRQTPEKRLEWVAYINNGGGSTYYPDTVKGRFTISRDNAKNTLYLQMSRLKSEDTAMYYCARQGNLIYYSGSSLFAYWGQGTMVTVSS
VL: DVLMTQTPLSLPVSLGDQASISCRSSQSIVHSNRNTYLEWYVQKPGQSPKLLIYKVSNRFSGVPDRFSGSGSGTDFTLKISRVEAEDLGVYYCFQGSHVPWTFGGGTKLEIK
notes: murine hybridoma antibody
B4: anti-MS4A4A antibody 4A-15 (antibody, V domains shown)
VH: EIQLQQTGPDLVKPGASVKISCKASGYSFTDYVILWVKQSHGKTLEWIGHINPYYANSDYNVNFRGKATLTVDKSSSTAHMQLNSLTSEDSAVYYCVRYGSGMDYWGQGTSVTVSS
VL: DVLMTQTPLSLPVSLGDQASISCRSSQSIVHSDGNTYLEWYLQKPGQSPKLLIYKVSNRFSGVPDRFSGSGSGTDFTLKISRVEAEDLGVYYCFQGSHFPLTFGAGTKLELK
notes: murine hybridoma antibody
B5: anti-MS4A4A antibody 4A-9 (antibody, V domains shown)
VH: DVQLQESGPGLVKPSQSLSLTCSVTGYSITSGYYWNWIRQFPGNKLEWMGYISYDGNNKYNPSLKNRISITRDTSKNQFFLKLNSVTTEDTATYYCANRDYWGQGTTLTVSS
VL: DVLMTQTPLSLPVSLGDQASISCRSSQNIVHSNGITYLEWFLQKPGQSPTLLIYKISNRFSGVPDRFSGSGSGTDFTLKISRVEAEDLGVYYCFQGSHVPYTFGGGTKLDIK
notes: murine hybridoma antibody
B6: anti-MS4A4A antibody 4A-210 (murine) (antibody, V domains shown)
VH: DVKLVESGGGLVKPGGSLKLSCAASGFTFGTYTMSWVRQTPEKRLEWVATISSGGSYTFYPDSVKGRFTISRDNAKNTLYLQMSSLKSEDTAMYYCTRDNTTGDRGWYFDVWGAGTTVTVSS
VL: DIVLTQSPVSLAVSLGQRATISCQASESVSFAGKSLMHWFQQKPGQPPKLLIYRASNLESGVPARFSGSGSESDFTLTIDPVEEDDATMYYCMQSMEDPRTFGGGTKLEIK
notes: murine hybridoma antibody
B7: anti-MS4A4A antibody 4A-207 (murine) (antibody, V domains shown)
VH: EVNLEESGGGLVQPGGSMKLSCVASGFTFNNYWMNWVRQSPEKGLEWVAEIRLKSNNYATHYAESVKGRFTISRDDSKSSVYLQMNNLRPEDTAIYYCTTDPPMDYSGQGTPVTVSS
VL: QIVLTQSPAFMSASPGEKVTITCSASSSVSYMHWFQQKPGTSPKLWIYSTSNLVSGVPDRFSGSGSGTSYSLTISRMEAEYAATYYCHQRTSYPWTFGGGTKLEIK
notes: murine hybridoma antibody
B8: anti-MS4A4A antibody 4A-2 (antibody, V domains shown)
VH: QIQLVQSGPELKKPGETVKISCKASGYTFVDYEMNWVKQAPGKGLEWLGWINTYTGEPTYADDFQGRFAFSLVTSVSTAYLQINNLKHEDMATYLCTRNYYYGNGDVMDYWGQGTSVTVSS
VL: QIVLTQSPAIMSASPGEKVTITCSASSSVSYIHWFQQKPGTSPKLWIYSTSNLASGVPARFSGSGSGTSYSLTISRMEAEDAATYYCQQRTGFPLTFGGGTQLEIK
notes: murine hybridoma antibody
B9: anti-MS4A4A antibody 4A-203 (murine) (antibody, V domains shown)
VH: DVKLVESGGGLVKLGGSLKLSCAASGFTFSSFYMSWVRQTPEKRLELVAAINSNGGSTYYPDTVKGRFTISRDNAKNTLYLQMSSLKSEDTALYYCARQNYYGSSSYWYFDVWGAGTTVTVSS
VL: EIVLTQSPALMAASPGEKVTITCSVSSSISSSNLHWYRQKSETSPKPWIYGTSNLASGVPVRFSGSGSGTSYSLTISSMEAEDAATYYCQQWSRYPLTFGAGTKLELK
notes: murine hybridoma antibody

Assays:
[1] = biological target: T1, human MS4A4A ECL1 peptide (amino acid …); test: ELISA, hybridoma supernatant
Method: (§1) Briefly, 96-well polystyrene plates were coated with 1-10 μg/ml of synthetic free or BSA-conjugated peptides in coating buffer (0.05M carbonate buffer, pH9.6, Millipore Sigma C3041) overnight at 4° C. Coated plates were then blocked with ELISA diluent (PBS+0.5% BSA+0.05% Tween20) for 1-hour, washed 3×300 μL in PBST (PBS+0.05% Tween20, Thermo Cat#28352), and then the antibodies were added to the plate (50 μl/ml). After 30 mins incubation (room temperature, with shaking), the plates were washed 3×300 μL in PBST. […] After a final set of washes (3×300 μL in PBST), 50 μL of TMB substrate (BioFx TMBW-1000-01) was added and the reaction was then quenched after 5-10 mins with 50 μL of stop solution (BioFx BSTP-1000-01). The quenched reaction wells were detected for absorbance at 650 nm with a BioTek Synergy Microplate Reader using GENS 2.04 software.

[2] = biological target: T2, BSA-conjugated human MS4A4A ECL2 …; test: ELISA, supernatant
Method: as §1

human MS4A4A [3] = biological target: T6, human MS4A4A (human, UniProt Q96JQ5 1-239); test: FACS, HEK293, supernatant
Method: (§2) Positive clones identified above were expanded and then rescreened for specificity against HEK293 cells overexpressing human MS4A4A or cyno MS4A4A and parental HEK293 cells. These experiments were performed using supernatants from hybridoma clones which had undergone further expansion after initial selection. Briefly, previously prepared, cryopreserved transiently-transfected cells were labeled with LIVE/DEAD Fixable Aqua Dead Cell Stain Kit (ThermoFisher Scientific L34957) on ice for 30 minutes. After a wash with PBS, 2×10⁵ cells were aliquoted per well in 96-well U-bottom plates and incubated with 50 μl of culture supernatant on ice for 30 minutes. […] Following this secondary incubation, the cells were again washed twice with ice-cold FACS buffer and resuspended in a final volume of 200 μl of FACS buffer. Analysis was performed on a FACS Canto system (BD Biosciences), with sort gates drawn to exclude dead (Aqua-positive) cells. Positive clones (fold change of 1.8 or greater) were carried forward for further testing.

cynomolgus (cyno) MS4A4A [4] = biological target: T7, cynomolgus (cyno) MS4A4A (cynomolgus); test: FACS, HEK293, supernatant
T7 construct: also called cy4A; Cyno 4A
Method: as §2

[5] = biological target: T3, human MS4A6A ECL1 peptide (amino acid …); test: array SPR
Method: (§3) Binding kinetic characterization of the anti-MS4A4A antibodies to MS4A4A ECL1 and ECL2 and to MS4A6A ECL1 and ECL2 peptides was performed by Carterra (South San Francisco, Calif.) using a proprietary array Surface Plasmon Resonance (SPR) instrument (MX-96) as follows. Antibodies were captured onto a CMD500D chip (Xantec # SPMX CMD500D) using the Continous Flow Microspotter (CFM). First, the chip was activated with 100 mM MES pH 5.5, 100 μL EDC (133 mM final), 100 μL of S-NHS (33.3 mM final), for 7 minutes. […] Anti-MS4A4A hydridoma supernatant or purified anti-MS4A4A antibodies were diluted in HBS-EP+ buffer (Teknova Cat # H8022) and then printed as duplicates with a 20 minute and a 5-minute print from the same sample solution.
(§4) These were then injected on the chip for five minutes, followed by a seven-minute dissociation period at 8 uL per second in a non-regenerative kinetic series. Duplicate measurements for each anti-MS4A4A antibody were taken to ensure reproducibility. Association rates (Kon) and dissociation rates (Koff) were calculated using a single one-to-one Langmuir binding model. The equilibrium dissociation constant (KD) was calculated as the ration of Koff/Kon.

[6] = biological target: T4, human MS4A6A ECL2 peptide (amino acid …); test: array SPR
Method: as §3, §4

[7] = biological target: T5, human MS4A4A ECL2 peptide (amino acid …); test: peptide ELISA, supernatant
[8] = biological target: T1, human MS4A4A ECL1 peptide (amino acid …); test: peptide ELISA
Method: as §1, with “[…]” for “1-10 μg/ml”, “Cat#C3041)” for “C3041)”, “μl/well).” for “μl/ml).”, “Cat#TMBW-1000-01)” for “TMBW-1000-01)”, “Cat#BSTP-1000-01).” for “BSTP-1000-01).”, “650nm” for “650 nm”

cynomolgus (cyno) MS4A4A [9] = biological target: T7, cynomolgus (cyno) MS4A4A; test: FACS, 300.19 cells, supernatant
Method: (§5) Positive clones identified in Example 22 above were expanded and then rescreened for specificity against U937, K562, and/or 300.19 cells stably overexpressing human MS4A4A or cyno MS4A4A and parental U937, K562, and/or 300.19 cells. These experiments were performed using supernatants from hybridoma clones which had undergone further expansion after initial selection. Briefly, stably transfected cells were labeled with LIVE/DEAD Fixable Aqua Dead Cell Stain Kit (ThermoFisher Scientific Cat#L34957) on ice for 30 minutes. […] 2×10⁵ cells were aliquoted per well in 96-well U-bottom plates and incubated with 50 μl of culture supernatant on ice for 30 minutes. […] Following this secondary incubation, the cells were again washed twice with ice-cold FACS buffer and resuspended in a final volume of 200 μl of FACS buffer. Analysis was performed on a FACS Canto system (BD Biosciences), with gates drawn to exclude dead (Aqua-positive) cells.
(§6) The APC ratio was calculated for each antibody as follows. […] For cell lines overexpressing human MS4A4A (h4A) or cyno MS4A4A (cy4A), the ration was calculated by comparing the binding measured to the binding observed on the corresponding parental cell lines.

human MS4A4A [10] = biological target: T6, human MS4A4A; test: FACS, K562 cells, supernatant
Method: as §5, §6

Row | binding result [1] | binding result [2] | Human 4A:parental cell ratio (human MS4A4A [3]) [ratio] | Cyno 4A:parental cell ratio (cynomolgus (cyno) MS4A4A [4]) [ratio] | binding result [5] | binding result [6] | binding result [7] | binding result [8] | fold increase in MFI (cynomolgus (cyno) MS4A4A [9]) [fold] | fold increase in MFI (human MS4A4A [10]) [fold] | Binder
1 | no binding | binds | 1.86 | 1.51 | no binding (tested: 2000 nM) | no binding (tested: 2000 nM) | – | – | – | – | B1
2 | no binding | binds | 9.12 | 2.11 | no binding (tested: 2000 nM) | no binding (tested: 2000 nM) | – | – | – | – | B2
3 | no binding | binds | 5.7 | 3.3 | no binding (tested: 2000 nM) | no binding (tested: 2000 nM) | – | – | – | – | B3
4 | no binding | binds | 8.13 | 4.67 | no binding (tested: 2000 nM) | no binding (tested: 2000 nM) | – | – | – | – | B4
5 | no binding | binds | 8.2 | 3.46 | no binding (tested: 2000 nM) | no binding (tested: 2000 nM) | – | – | – | – | B5
6 | – | – | – | – | – | – | no binding | no binding | – | – | B6
7 | – | – | – | – | – | – | – | – | > 2 | > 2 | B7
8 | no binding | binds | 20.2 | 9.63 | no binding (tested: 2000 nM) | no binding (tested: 2000 nM) | – | – | – | – | B8
9 | – | – | – | – | – | – | no binding | no binding | – | – | B9
